Experiment [1] deals with Sorbitol dehydrogenase SmoS from Sinorhizobium meliloti 1021 (Sinorhizobium meliloti 1021). The experiment in a line: SEC.
The target is the same in experiment [2]. The experiment in a line: crystal structure.

Take “Sorbitol dehydrogenase SmoS from Sinorhizobium meliloti 1021 (enzyme)”: the stoichiometry N in experiment [1] and in experiment [2] was 4 each time.
